To fix the notation:
B1: CPEB3 Ribozyme (parent)
chain: UAACAGGGGGCCACAGCAGAAGCGUUCACGUCGCAGCCCCUGUCAGAUUCUGGUGAAUCUGCGAAUUCUGCUGUAUAUCUC

The data set covers variants of B1. Put plainly: self-cleavage, relative activity (ratio to wild type); higher = more cleavage; in vitro, sequencing. In a few lines: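 Relative activity compares each variant's cleaved/total read fraction with that of the unmutated ribozyme. To get these fractions, barcoded CPEB3 ribozyme libraries from rounds of error-prone PCR were transcribed with T7 RNA polymerase for 5 hours at 37°C and then given 15 min of DNase I treatment before EDTA was added. The RNAs were reverse transcribed with template switching and sequenced on Illumina, and DNA sequencing linked barcodes to variants. A minimum of 5 reads applied, and three batches were averaged.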
Turning to UAACAGGGGGCCACAGCAGAAGCGUUCACGUCGCAGCCCCUGUCAGAUUCUGGUGAAUCUGCGUUUUCUGCUGUAUAUCUC, the self-cleavage turned out to be 0.37.
Take UAACAGGGGGCCACAGCAGAUACGUUCACGUCGCAGCCCCUGUCAGAUUCUGGUGAAUCUGCGAAUUCUGCUGUAUAUCUC: the self-cleavage stood at 0.29.
With UAACAGGGGGCCACAGCAGAAGCGUUCACGUCGCAGCCCCUGUCAGAUUCUGGUGAAUCUGCGAAUUCUGCUGAAUGUCUC, the self-cleavage worked out at 1.26.
In the case of UAACAGGGGGCCAUAGCAGAAGCGUUCACGUCGCAGCCCCUGCCAGAUUCUGGUGAAUCUGCGAAUUCUGCUGUAUAUCUC, the self-cleavage is 1.08.
As for UAACAUGGGGCCACAGCAGAAGCGUUCACGUCGCAGCCCCUGUCAGAAUCUGGUGAAUCUGCGAAUUCUGCUGUAUAUCUC, the figure is 0.16; as for UAACAGGGGGCCACAGCAGAAGAGUUCACGUCGCAGCCCCUGUCAGAUUCUGGCGAAUCUGCGAAUUCUGCUGUAUAUCUC, 0.18.
As for UAACAGGGGGACACAGCGGAAGCGUUCACGUCGCAGCCCCUGUCAGAUUCUGGUGAAUCUGCGAAUUCUGCUGUAUAUCUC, the figure is 0.28; as for UAACAGUGGGCCACAGCAGAAGCGUUCACGUCGCAGGCCCUGUCAGAUUCUGGUGAAUCUGCGAAUUCUGCUGUAUAUCUC, 0.53; as for UAACAGGGGGCCACAGCAGAAGCGUUCACGUCGCAGCCCCUGUCAGAUUCUGGUGAAUCUGCGGAUUCUGCUGAAUAUCUC, 1.2.
As for UAACAGGGGGCCACAGCAGAAGCGAUCACGUCGCAGCCCCUGUCAGAUUCUGGUGAAUCUGCGGAUUCUGCUGUAUAUCUC, the figure is 0.33; as for UAACAGGGGGCCACAGCAGAAGCUUUCACGUCGCAGCCCCUGUCAGAUUCUGGUGAACCUGCGAAUUCUGCUGUAUAUCUC, 0.17; as for UAACAGGGGGCCACAGCAGAAGCGUUCACGUCGCAGCCCCUGUCAGAUUCUGGUGAAUCUGUGAAUUCUGCUGUAAAUCUC, 0.25.
For the variant UAACAGAGGGCCACAGCAGAAGCGUUCACGUCGCAGCCCCUGUCAGAUUCUGGUGAAUCUGCGGAUUCUGCUGUAUAUCUC, the self-cleavage amounted to 0.28.
In the case of UAACAGGGGGCCACAACAGUAGCGUUCACGUCGCAGCCCCUGUCAGAUUCUGGUGAAUCUGCGAAUUCUGCUGUAUAUCUC it was 0.16; in that of UAACAGGGGGCCACAGCAGAAGCGUUCACGUCGCAGCCCCUGUCAGAUUCUGGUGAAGCUGCGAAUUCUGCGGUAUAUCUC, 0.44.

The values are drawn from the RNAGym collection of RNA variant scans (doi:10.1093/nar/gkz1192).
